Test results taken from patent US20230094597A1, “COMPOSITIONS AND METHODS FOR TREATING DISORDERS CHARACTERIZED WITH EXCESSIVE OSTEOCLAST ACTIVITY” (THE JOHNS HOPKINS UNIVERSITY, priority 2021, published 2023).

Columns and labels:
MEK-ERK-MYC signaling = assay: Western blot of ERK, MYC phosphorylation and Siglec15 in BMMs; assay type: cell-based, mouse
Protocol: (§1) To explore the molecular mechanism of M-CSF activation of Siglec15, we used U0126, a selective of mitogen-activated protein kinase kinases inhibitor of MEK1 and MEK2. […] To understand Siglec15 transcription, we analyzed the core enhancer of Siglec15 and found three binding sites of MYC with high species […]. Chromatin immunoprecipitation (ChIP) assay was performed to investigate the interaction of MYC with the 3 deoxyribonucleic acid binding sites. […] MYC recognizes and binds to E-box domains with consensus recognition sequence of CACGTG or CATGTG (Guccione et al., 2006). In the 310-bp binding region, we recognized the sequences of TATGTG and AATGTG that share 80% similarities with reported binding bases. To confirm the role of these MYC recognition sequences, we constructed an enhancer reporter with this Siglec15 enhancer, and 3 mutants were derived by site-directed mutagenesis to inactivate the MYC recognition (FIG. 11E). […] Thus, M-CSF activates Siglec15 expression via MEK-ERK-MYC cascade.
(§2) For the co-IP assays, cells were first lysed in the presence of protease inhibitors using IP buffer. […] SDS-PAGE was then used to separate the immunoprecipitates before transfer to a nitrocellulose membrane for immunoblotting procedures. […]

WT BMMs = assay: In vitro osteoclast differentiation assay (TRAP staining) of BMMs; assay type: cell-based, mouse
Siglec15 = Siglec15 expression in BMMs (flow cytometry, immunostaining); assay type: cell-based, mouse
Protocol: To understand the detailed mechanism of Siglec15 regulating osteoclast formation, we incubated WT BMMs with biotinylated Siglec15 monoclonal antibody and manually separated Siglec15^+ BMMs from Siglec15- BMMs using anti-biotin microbeads and magnetic separators (FIG. 4A). Separated Siglec15* and Siglec15- BMMs were then stimulated with M-CSF and RANKL for osteoclastogenesis. […] One study reported that osteoclast fusion might be initiated by a small subset of progenitors (Levaot et al., 2015); therefore, we combined separated Siglec15^+ BMMs with BMMs isolated from Siglec15^ΔLysM mice in different proportions (1%, 5%, and 10%). […] Immunofluorescent staining confirmed that Siglec15^+ and Siglec15^− BMMs can form multinucleated osteoclasts with normal actin rings, and the expression of Siglec15 was restored in Siglec15^− BMMs during osteoclastogenesis (FIG. 8). […] BMMs cultured with RANKL alone, absent M-CSF, cannot survive during osteoclastogenesis (FIG. 4D, E).
as §1
Mouse bone specimens were first fixed and then decalcified using 10% EDTA (Sigma-Aldrich, St. Louis, Mo., USA) for 14 days with constant shaking. For the histological assays, the detailed protocols were reported in a previous study (Dou, J. Bone Min. Res. 33, 899-908 (2018)). In short, the samples were then dehydrated and embedded in optimal cutting temperature compound (Sakura Finetek, Torrance, Calif., USA) or in paraffin. Four-μm-thick coronal-oriented femur sections were prepared for TRAP staining. Forty-μm-thick coronal-oriented femur sections were prepared for IF staining. The detailed protocols were described in a previous study study (Dou, J. Bone Min. Res. 33, 899-908 (2018)). Briefly, the sections were incubated with primary antibodies against mouse TLR2 (Santa Cruz Biotechnology, sc-21759, 1:200), Siglec15 (PA5-48221, Thermo Fisher Scientific, 1:100), ST3GAL1 (PA5-21721, Thermo Fisher Scientific, 1:50), and TRAP (Abcam, ab191406, 1:100) for 12 h at 4° C. For sialic acid detection, biotinylated Maackia Amurensis Lectin II (MAL II) (Vector Laboratories, CA, USA) was used to label the α2,3 linkage, and biotinylated Sambucus Nigra Lectin (SNA) (Vector Laboratories, CA, USA) was used to label the α2,6 linkage. Fluorescein-conjugated streptavidin (Vector Laboratories, CA, USA) was used for the addition of a fluorescent label to biotinylated sialic acid conjugates. A Zeiss LSM 780 confocal microscope and an Olympus BX51 microscope were used for image capture.
To sort Siglec15^+ cells, whole bone marrow was collected from mouse femurs and tibias after mice were euthanized with an overdose of inhaled isoflurane. Whole bone marrow cells were also used for culture and induction of BMMs using M-CSF (50 ng mL^−1) for higher Siglec15^+ cell enrichment in further studies. After red blood cell lysis, the cell number was counted, and the same numbers of cells were incubated with a biotinylated mouse Siglec15-specific antibody (PA5-48221, Thermo Fisher Scientific). […]

St3gal1 = St3gal1 transcription under estrogen; settings: FIG. 26
Siglec15 core enhancer = assay: ChIP-PCR of MYC binding at the Siglec15 core enhancer; assay type: cell-based, mouse; settings: BMMs, stimulation for 48 h
Protocol: For the ChIP assay, primary BMMs were cultured with M-CSF or GM-CSF stimulation for 48 h to detect Siglec15 core enhancer DNA binding. M-CSF-primed cells were induced with RANKL for another 72 h to detect St3 gal1 core enhancer DNA binding. Afterward, the cells were cross-linked using 1% formaldehyde and lysed. DNA fragmentation was then achieved by enzymatic digestion with micrococcal nuclease (MNase). After digestion, 10% of the sample was preserved as the total input aliquot for further use. The remaining supernatant was then incubated with a ChIP-grade primary antibody against mouse p-CREB (Abcam, ab32096, 10 μg), c-FOS (Abcam, ab27793, 10 μg), or c-MYC (Abcam, ab9132, 10 μg). An anti-RNA Polymerase II antibody was used as the positive IP control, and normal rabbit IgG was used as the negative IP control. […] After elution, the DNA was then purified and recovered according to the manufacturer's instructions, and PCR detection was performed. The PCR primers used to detect MYC binding were as follows: Site #1, forward: [NT] ID NO: 1), and reverse: [NT] ID NO: 2); Site #2, forward: [NT] ID NO: 3), and reverse: [NT] ID NO: 4); and Site #3, forward: [NT] ID NO: 5), and reverse: [NT] ID NO: 6). The PCR primers used to detect FOS binding were as follows: forward: [NT] ID NO: 7), and reverse: [NT] ID NO: 8). The PCR primers used to detect CREB binding were as follows: forward: [NT] […]

TLR2 [1] = assay: Immunostaining of α2,3 and α2,6 sialic acid in WT BMMs; assay type: cell-based, mouse
Protocol: Because TLR2 has 4 N-linked glycosylation sites (Weber et al., 2004), to investigate the molecular mechanism of sialylation we tested α2,3 and α2,6 N-Linked SA modification, the two most common sialylation pattern in mammalian cells. […] To understand why α2,3 was sialylated, we examined each member expression profile of the entire sialyltransferase family. […] Moreover, α2,3 SA was immunocolocalized with TLR2, not with Siglec15 in WT and Siglec15^ΔLysM BMMs after RANKL stimulation for 24 h (FIGS. 16C, D).
Mouse bone specimens were first fixed and then decalcified using 10% EDTA (Sigma-Aldrich, St. Louis, Mo., USA) for 14 days with constant shaking. For the histological assays, the detailed protocols were reported in a previous study (Dou, J. Bone Min. Res. 33, 899-908 (2018)). In short, the samples were then dehydrated and embedded in optimal cutting temperature compound (Sakura Finetek, Torrance, Calif., USA) or in paraffin. Four-μm-thick coronal-oriented femur sections were prepared for TRAP staining. Forty-μm-thick coronal-oriented femur sections were prepared for IF staining. The detailed protocols were described in a previous study study (Dou, J. Bone Min. Res. 33, 899-908 (2018)). […]

p65 = p65 nuclear translocation (immunostaining, western blot) in BMMs; assay type: cell-based, mouse
TLR2 [2] = assay: ELISA of peptidoglycan-induced cytokine secretion from BMMs; assay type: cell-based, mouse; settings: RANKL, or RANKL plus sialidase
From the text: To test signaling activity of α2,3 sialylation, we removed α2,3 SA of TLR2 induced by RANKL by adding sialidase in the BMM culture. […] To examine the transcriptional mechanism of ST3Gal1 activation by RANKL, we analyzed 5′ promoter sequence of ST3Gal1 and recognized binding sites for CREB1 and FOS (downstream transcription factors of RANKL signaling) in the core enhancer (FIG. 16E). […] To confirm the functional activity of the FOS site, we constructed an enhancer reporter with ST3Gal1 enhancer and FOS mutant binding sites. […] To validate RANKL-induced sialylation in vivo, we crossed RANKL^ﬂ/ﬂ mice with the Dmp1-Cre strain to generate osteocyte-specific RANKL knockout mice (RANKLΔ^Dmp1). […] Furthermore, the Siglec15-TLR2 co-localization that can be observed in RANKL^ﬂ/ﬂ mice disappeared in RANKL^ΔDmp1 mice (FIG. 19B).

Siglec15-DAP12 = assay: Co-IP of Siglec15 with DAP12 and DAP12 tyrosine phosphorylation in BMMs; assay type: cell-based, mouse; settings: BMMs induced with RANKL, sialidase or both
Protocol: To examine whether Siglec15 downstream signaling is activated by binding to sialylated TLR2, co-IP of Siglec15 with DAP12, a key factor for cell fusion, was conducted in BMMs induced with RANKL, sialidase or both. […] Moreover, tyrosine phosphorylation of DAP12 was detected in the co-IP experiment upon RANKL induction of Siglec15 clustering but was again impaired by sialidase treatment (FIG. 28d). We then tested whether TLR2 signaling is activated by binding to Siglec15. The recruitment of MyD88 to TLR2 was examined by co-IP. […] Removal of SA by sialidase reduced MyD88 recruitment and NFATc1 activation (FIG. 28e). […] Cell-cell fusion is a fundamental cellular activity of macrophages, and multinucleation is a complex process that is likely involved in multiple signaling pathways. Activation of downstream signaling by both Siglec15 and sialylated TLR2 is involved in different cells simultaneously, and both signaling pathways could also occur in each cell, which could be the critical mechanism for cell fusion.
as §2

N#CC(=C(/N)Sc1ccccc1N)/C(C#N)=C(\N)Sc1ccccc1N [U0126, reference compound]
M-CSF-ERK-MYC-Siglec15 cascade (MEK-ERK-MYC signaling; M-CSF+U0126, 0-72 h): blocked this cascade | cell survival rate (WT BMMs; WT BMMs, U0126 10 μmol·L^-1): decreases | osteoclastogenesis (WT BMMs; WT BMMs, U0126 10 μmol·L^-1): decreases | Siglec15 upregulated by M-CSF (Siglec15; BMMs, M-CSF+U0126, immunostaining): abrogated

estrogen
RANKL-activated St3gal1 transcription (St3gal1): inhibits

GM-CSF: granulocyte-macrophage CSF, encoded by CSF2
osteoclastogenesis (WT BMMs; BMMs induced with RANKL+GM-CSF): cannot induce | expression of Siglec15 (Siglec15; BMMs treated with GM-CSF, immunostaining): cannot induce | binding of MYC with the core enhancer of Siglec15 (Siglec15 core enhancer): cannot induce

B1: M-CSF: macrophage colony stimulating factor (protein, UniProt P09603 33-554, looked up)
Macrophage colony-stimulating …: EEVSEYCSHMIGSGHLQSLQRLIDSQMETSCQITFEFVDQEQLKDPVCYLKKAFLLVQDIMEDTMRFRDNTPNAIAIVQLQELSLRLKSCFTKDYEEHDKACVRTFYETPLQLLEKVKNVFNETKNLLDKDWNIFSKNCNNSFAECSSQDVVTKPDCNCLYPKAIPSSDPASVSPHQPLAPSMAPVAGLTWEDSEGTEGSSLLPGEQPLHTVDPGSAKQRPPRSTCQSFEPPETPVVKDSTIGGSPQPRPSVGAFNPGMEDILDSAMGTNWVPEEASGEASEIPVPQGTELSPSRPGGGSMQTEPARPSNFLSASSPLPASAKGQQPADVTGTALPRVGPVRPTGQDWNHTPQKTDHPSALLRDPPEPGSPRISSLRPQGLSNPSTLSAQPQLSRSHSSGSVLPLGELEGRRSTRDRRSPAEPEGGPASEGAARPLPRFNSVPLTDTGHERQSEGSFSPQLQESVFHLLVPSVILVLLAVGGLLFYRWRRRSHQEPQRADSPLEQPEGSPLTQDDRQVELPV
MYC phosphorylation via ERK activation (MEK-ERK-MYC signaling; western blot): phosphorylated the Ser62 of MYC | Siglec15 expression in separated Siglec15- BMMs (Siglec15; FCM, after 3 days of stimulation): restored Siglec15 expression | proportion of Siglec15+ BMMs (Siglec15; flow cytometry, Siglec15 ΔLysM mice, M-CSF 3 days): no obvious changes | proportion of Siglec15+ BMMs (Siglec15; flow cytometry, whole bone-marrow cells of Siglec15 fl/fl mice, M-CSF 3 days): significantly increased | proportion of Siglec15+ BMMs (Siglec15; immunofluorescent staining, Siglec15 fl/fl mice): significantly increased

B2: RANKL: receptor activator of NF-κappaB ligand (protein, UniProt O14788 140-317, looked up)
Tumor necrosis factor ligand …: IRAEKAMVDGSWLDLAKRSKLEAQPFAHLTINATDIPSGSHKVSLSSWYHDRGWAKISNMTFSNGKLIVNQDGFYYLYANICFRHHETSGDLATEYLQLMVYVTKTSIKIPSSHTLMKGGSTKYWSGNSEFHFYSINVGGFFKLRSGEEISIEVSNPSLLDPDQDATYFGAFKVRDID
α2,3 sialylation of TLR2 (TLR2 [1]): robustly induced | p65 nuclear translocation (p65): activated | peptidoglycan-induced secretion of IL-6 (TLR2 [2]): inhibited | peptidoglycan-induced secretion of TNF-α (TLR2 [2]): inhibited | association of Siglec15 with DAP12 (Siglec15-DAP12): induced the association of Siglec15 with DAP12
